Measured values from the supplement of paper PMC10567573.
± gives the standard deviation.

Experiment: protein stability index of a GFP-peptide fusion (GPS, HEK-293T) (PSI 1-6); higher = more stable
Settings: c terminus: a fixed tail appended
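Note: 24-mer peptide tiles fused after GFP, lentivirally expressed, FACS-sorted into six equal bins by GFP/DsRed ratio, decoded by Illumina sequencing, PSI is the read-weighted mean bin number.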

Sequence	protein stability index (treatment: DMSO)	protein stability index (treatment: MLN4924 1 uM, 8 h)
DQENFQGKRMEFTSSCPNVSERSF [CRYBA1]	4.49 ± 0.12	4.46 ± 0.24
SASSPASVGDPCGGAICGGPDHRL [SLC25A25]	4.43 ± 0.23	4.58 ± 0.22
AVQAQAGWLQHDFGHLSVFSTSKW [FADS1]	2.23 ± 0.18	2.29 ± 0.33
ATIFALSTMTSSVQIYNLSQNIQE [ATL3]	3.03 ± 0.76	3.27 ± 0.71
IRRPVNVPIDIFSEEIRFYQLGEE [KCNA3]	2.59 ± 0.56	2.75 ± 0.37
CKGRDHGVLDALHVLEGLFRTDPE [ZSWIM9]	2.8 ± 0.05	2.81 ± 0.26
RGLSQNLFSNSDHQRDGTLGALHT [SASS6]	3.87 ± 0.26	3.81 ± 0.17
DHSSRELSKILAKLERLKQQNEDL [FUT8]	3.89 ± 0.12	4.03 ± 0.16
SPLHLVQMPPVIVETARSHQRSSS [PI4K2A]	4.22 ± 0.18	4.24 ± 0.2
STIGFKLPNHRAAKRLWKVCVEHH [EPB41L3]	2.26 ± 0.27	2.58 ± 0.45
ALSLLELLGFNLTFVFLASLLVLI [CLCN6]	3.23 ± 0.93	2.69 ± 0.97
VITYILLSGASPFLGETKQETLTN [DAPK3]	2.75 ± 0.26	2.86 ± 0.4
IASEPTNKHLFYAEDFSTMDEISE [MATN2]	4.57 ± 0.27	4.59 ± 0.23
DESGGPDNEDYPLFRELWRYHFAT [KLHDC10]	2.95 ± 0.29	2.99 ± 0.27
RVDQDKDKDCSLDCAGSPQKPLCA [SMOC2]	5.39 ± 0.34	5.31 ± 0.32
KLSCLFAGPHSTLTPPCSPPEDGL [SNX8]	3.25 ± 0.18	3.19 ± 0.4
HAAQGGPLLCPGCQGQPQGKAVVS [ELOA2]	3.9 ± 0.36	4.09 ± 0.24
KGRTIYLEDIYVMPEYRGQGIGSK [SAT2]	2.44 ± 0.31	2.79 ± 0.12
HKVAPLVQSLCAKHGIEYQSKPLL [FADS1]	2.68 ± 0.34	3 ± 0.17
TRAILRERICSEEERAKAKHLARQ [CHCHD3]	3.52 ± 0.33	3.76 ± 0.27
SPGELEEDLLLPGACPGADEAGGG [WEE1]	5.42 ± 0.24	5.5 ± 0.12
WEPRRDMWVRFRAFEAARDLDACA [ZSWIM9]	2.79 ± 0.34	2.72 ± 0.2
YTVNFLEAKEGDLHRIEIPFKFHM [CARM1]		3.15 ± 1.1
